{
  "source": "paper PMC2887044",
  "about": "(Journal of molecular biology, 2010)",
  "proteins": {"B1": {"name": "Alexa-labelled apoC-II S61C (Alexa-488 apoC-II; Alexa-594 apoC-II) (natural protein, human, UniProt P02655 23-101, looked up)", "chain": "TQQPQQDEMPSPTFLTQVKESLSSYWESAKTAAQNLYEKTYLPAVDEKLRDLYSKSTAAMCTYTGIFTDQVLSVLKGEE", "modifications": "conjugated with Alexa dyes (Alexa 488 C5 maleimide or Alexa 594 C5 maleimide)"}},
  "assay_in_all_cases": "FRET or BRET",
  "key": {"FRET or BRET [1]": {"biological_target": "the molecule itself"}, "FRET or BRET [2]": {"biological_target": "the molecule itself", "remark": "listed apart in the source"}, "FRET or BRET [3]": {"biological_target": "the molecule itself", "remark": "listed apart in the source"}},
  "note": "Read-outs that look alike come from different tables or passages of the source.",
  "data": [
    {"protein": "B1", "values": [
      {"measurement": "koff", "setting": "FRET or BRET [1]", "result": 0.161, "unit": "s⁻¹"},
      {"measurement": "koff", "setting": "FRET or BRET [2]", "result": 0.0125, "unit": "s⁻¹"},
      {"measurement": "koff", "setting": "FRET or BRET [3]", "result": 0.00639, "unit": "s⁻¹"}
    ]}
  ]
}
